According to the supplement of paper PMC9112550, “Optimization of the antimicrobial peptide Bac7 by deep mutational scanning” (BMC Biology, 2022):

System: Escherichia coli TOP10
Experiment: shrunken log2 fold change of peptide-encoding DNA abundance (4.5 h post-induction vs induction); higher = less antimicrobial activity (less host growth inhibition)
Conditions: time post-induction: 4.5 h; library: site-saturation at positions 5, 18, 19, 20
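Note: peptides expressed intracellularly from a pBAD plasmid library in pooled LB shake-flask culture, induced with 0.3% L-arabinose, DNA abundance read by NGS, three biological replicates, DESeq2 with apeglm shrinkage.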

Row | Sequence | shrunken log2 fold change
1 | RRIRSRPPRLPRPRPRPEHDPRP | -0.128
2 | RRIRHRPPRLPRPRPRPGLGPRP | 0.404
3 | RRIRNRPPRLPRPRPRPGHYPRP | -0.171
4 | RRIRERPPRLPRPRPRPPIQPRP | -0.27
5 | RRIRQRPPRLPRPRPRPWYYPRP | 0.0179
6 | RRIRRRPPRLPRPRPRPIFGPRP | 0.338
7 | RRIRVRPPRLPRPRPRPAISPRP | -0.122
8 | RRIRLRPPRLPRPRPRPKERPRP | -0.00664
9 | RRIRPRPPRLPRPRPRPCSWPRP | 0.0726
10 | RRIRHRPPRLPRPRPRPQAYPRP | -0.451
11 | RRIRQRPPRLPRPRPRPHKLPRP | -0.544
12 | RRIRFRPPRLPRPRPRPAHYPRP | -0.059
13 | RRIRPRPPRLPRPRPRPRAIPRP | 0.503
14 | RRIRMRPPRLPRPRPRPFMHPRP | -0.647
15 | RRIRYRPPRLPRPRPRPLVYPRP | -1.16
16 | RRIRERPPRLPRPRPRPISHPRP | -0.678
17 | RRIRSRPPRLPRPRPRPMDGPRP | -0.095
18 | RRIRFRPPRLPRPRPRPMEMPRP | -0.0294
19 | RRIRPRPPRLPRPRPRPNIWPRP | -0.0307
20 | RRIRKRPPRLPRPRPRPCNIPRP | -0.697
21 | RRIRERPPRLPRPRPRPVYCPRP | -0.477
22 | RRIRMRPPRLPRPRPRPAVLPRP | 0.0985
23 | RRIRYRPPRLPRPRPRPETFPRP | -0.0918
24 | RRIRVRPPRLPRPRPRPHMIPRP | -0.463
25 | RRIRGRPPRLPRPRPRPEYWPRP | 1.03
26 | RRIRHRPPRLPRPRPRPNDRPRP | -0.104
27 | RRIRNRPPRLPRPRPRPHPFPRP | -0.0852
28 | RRIRRRPPRLPRPRPRPFFKPRP | -0.177

Row | Sequence | shrunken log2 fold change
29 | RRIRGRPPRLPRPRPRPNCNPRP | 0.199
30 | RRIRNRPPRLPRPRPRPQDQPRP | -0.222
31 | RRIRRRPPRLPRPRPRPYLPPRP | -0.456
32 | RRIRMRPPRLPRPRPRPWEVPRP | -0.00931
33 | RRIRARPPRLPRPRPRPGESPRP | 0.014
34 | RRIRWRPPRLPRPRPRPSSNPRP | -0.0759
35 | RRIRARPPRLPRPRPRPTYVPRP | 0.504
36 | RRIRIRPPRLPRPRPRPLLEPRP | -0.437
37 | RRIRRRPPRLPRPRPRPNSHPRP | -0.11
38 | RRIRNRPPRLPRPRPRPKLEPRP | 0.0965
39 | RRIRERPPRLPRPRPRPPFFPRP | 0.0761
40 | RRIRTRPPRLPRPRPRPEIRPRP | -0.0371
41 | RRIRARPPRLPRPRPRPVQKPRP | 0.198
42 | RRIRFRPPRLPRPRPRPIYEPRP | -0.632
43 | RRIRRRPPRLPRPRPRPAQLPRP | 0.42
44 | RRIRFRPPRLPRPRPRPQMNPRP | -0.709
45 | RRIRVRPPRLPRPRPRPQRYPRP | -0.883
46 | RRIRLRPPRLPRPRPRPSKRPRP | -0.646
47 | RRIRKRPPRLPRPRPRPSGAPRP | 0.539
48 | RRIRNRPPRLPRPRPRPGLFPRP | 0.0823
49 | RRIRQRPPRLPRPRPRPQQHPRP | -0.362
50 | RRIRPRPPRLPRPRPRPYQEPRP | -0.418
51 | RRIRCRPPRLPRPRPRPSLYPRP | -0.518
52 | RRIRLRPPRLPRPRPRPYRHPRP | -0.628
53 | RRIRLRPPRLPRPRPRPISMPRP | -0.801
54 | RRIRWRPPRLPRPRPRPCNEPRP | -0.409
55 | RRIRGRPPRLPRPRPRPMGGPRP | 0.458
